For one test, the target named is T1, PIV1054 (PIV1).
T1 construct: A466L, S473L, A480L, G134A
Nature of the test: BLI, no stress.

The next test deals with T2, PIV1064 (PIV1).
T2 construct: F113G, F114S, Q92C-G134C, A466I, S473I, A480L
Description: BLI, no stress.

A further test has as its target T3, PIV1063 (PIV1).
T3 construct: A466L, S473L, A480L, Q92A, G134L
Description: BLI, no stress.

A further test addresses T4, PIV1066 (PIV1).
T4 construct: A466I, S473I, A480L, Q92L, G134A
Description: BLI, no stress.

The target in test [1] is T5, PIV1 F literature prefusion comparison (PIV1).
T5 construct: F113G, F114S, A466I, S473I (Stewart-Jones et al. 2018)
Nature of the test: BLI, no stress.
Description: (§1) The OCTET HTX (Sartorius, Gottingen, Germany) instrument was used to evaluate the expression and conformational integrity for each mutant. All measurements were conducted at 30° C. temperature in 96-well black plates (Corning, Corning, NY) with a final volume of 240 μL per well at a constant agitation rate of 1000 RPM.
(§2) Conformation integrity of PIV1 F protein mutants were evaluated by a thermal stress experiment. Crude cell culture supernatants were normalized based on the results of the titer quantitation and then incubated for 1 hour at room temperature and two higher temperatures. For the initial testing of PIV1 mutants, the two temperatures were 50° C. and 53° C. […] Anti-Human IgG Fc Capture (AHC) biosensors were first equilibrated in PB for before being dipped into more PB to establish the initial baseline. […] The mAb-bound biosensors were then dipped into the thermal stresses cell culture supernatants for 5 minutes.

The target of another test is T6, PIV1060 (PIV1).
T6 construct: Q92L, G134A, A466L, S473L, A480L
Description: BLI, no stress.

Another test has as its target T7, PIV1048 (PIV1).
T7 construct: Q92C-G134C, A466L, S473L, A480L
Description: BLI, no stress.

A further test has as its target T8, PIV1067 (PIV1).
T8 construct: F113G, F114S, Q92C-G134C, A466I, S473I, A480I
Nature of the test: BLI, no stress.

In the next test the target is T9, PIV1051 (PIV1).
T9 construct: Q92C-G134C, A466V, S473V, A480V
Description: BLI, no stress.

Another test addresses T10, PIV1050 (PIV1).
T10 construct: F113G, F114S, Q92C-G134C, A466V, S473V, A480V
Nature of the test: BLI, no stress.

In the next test the target is T11, PIV1055 (PIV1).
T11 construct: A466L, S473L, G134A
Nature of the test: BLI, no stress.

A further test has as its target T12, PIV1068 (PIV1).
T12 construct: A466I, S473I, A480I, Q92L, G134A
Nature of the test: BLI, no stress.

The next test deals with T13, PIV1053 (PIV1).
T13 construct: F113G, F114S, A466L, S473L, A480L, G134A
Nature of the test: BLI, no stress.

The target of the next test is T14, PIV1056 (PIV1).
T14 construct: F113G, F114S, A466L, S473L, A480L, Q92A, G134A
Nature of the test: BLI, no stress.

For a further test, the target named is T15, PIV1057 (PIV1).
T15 construct: A466L, S473L, A480L, Q92A, G134A
Nature of the test: BLI, no stress.

A further test deals with T16, PIV1052 (PIV1).
T16 construct: Q92C-G134C, A466V, S473V; also called PV1052
Description: BLI, no stress.

The target in the next test is T17, PIV1065 (PIV1).
T17 construct: F113G, F114S, Q92C-G134C, A466I, S473I
Description: BLI, no stress.

The next test concerns the target T18, PIV1049 (PIV1).
T18 construct: Q92C-G134C, A466L, S473L
Nature of the test: BLI, no stress.

The target in the next test is T19, PIV1059 (PIV1).
T19 construct: F113G, F114S, A466L, S473L, A480L, G134A, Q92L
Description: BLI, no stress.

The next test deals with T20, PIV1058 (PIV1).
T20 construct: A466L, S473L, Q92A, G134A
Description: BLI, no stress.

For a further test, the target named is T21, PIV1047 (PIV1).
T21 construct: F113G, F114S, Q92C-G134C, A466L, S473L, A480L
Description: BLI, no stress.

For another test, the target named is T22, PIV1061 (PIV1).
T22 construct: Q92L, G134A, A466L, S473L
Nature of the test: BLI, no stress.

The target in another test is T23, PIV1062 (PIV1).
T23 construct: F113G, F114S, A466L, S473L, A480L, Q92A, G134L
Nature of the test: BLI, no stress.

Test [2] deals with T5, PIV1 F literature prefusion comparison. Nature of the test: BLI, no stress. The source holds these as a separate data set.
Description: as §2
For a further test, the target named is T24, PIV1070 (PIV1).
T24 construct: F113G, F114S, A466I, S473I, G134A
Description: BLI, no stress.

The next test concerns the target T25, PIV1069 (PIV1).
T25 construct: F113G, F114S, A466L, S473L, G134A
Nature of the test: BLI, no stress.

Test [3] has as its target T26, stabilized hPIV1 F protein trimer in pre-fusion conformation (human parainfluenza virus 1).
T26 construct: also called preF-hPIV1; HPIV1 pre-fusion F protein
Nature of the test: SPR (Biacore 8K+), mAb captured on Protein A chip.
Description: (§3) To avoid conformation changes of F protein while coupling to SPR sensor chip an orientation-specific binding of antibodies through constant (Fc) region was chosen to determine affinity of the newly discovered antibodies using Biacore 8K+ system (Cytiva) and corresponding InSight Software (Cytiva) for analysis. […] Unbound antibodies were washed off with 1×HBS-P buffer. […] Dissociation time was set to 600 seconds to allow for elongated fitting model. Chip was regenerated with two cycles of 4.5M MgCI2 solution. […] Affinity of antibodies were reported in molar concentrations as ratio of dissociation and association.

For a further test, the target named is T27, hMPV082 (hMPV A, UniProt Q6WB98 19-102).
T27 construct: T411C-Q434C, A140C-S149C, G239A
Description: BLI, 53C stress.

A further test addresses T28, hMPV078 (hMPV A, UniProt Q6WB98 19-102).
T28 construct: T411C-Q434C, A140C-S149C
Nature of the test: BLI, 53C stress.

The target of the next test is T29, hMPV086 (hMPV A, UniProt Q6WB98 19-102).
T29 construct: T411C-Q434C, L141C-A161C, T49I; also called hMP0086
Nature of the test: BLI, 53C stress.

The target in another test is T30, hMPV087 (hMPV A, UniProt Q6WB98 19-102).
T30 construct: T411C-Q434C, L141C-A161C, T365I
Description: BLI, 53C stress.

Another test concerns the target T31, hMPV089 (hMPV A, UniProt Q6WB98 19-102).
T31 construct: T411C-Q434C, L141C-A161C, S149T
Description: BLI, 53C stress.

Test [4] concerns the target T32, stabilized hMPV F protein trimer in pre-fusion conformation (human metapneumovirus).
T32 construct: also called preF-hMPV; hMPV pre-fusion F protein
Nature of the test: SPR (Biacore 8K+), mAb captured on Protein A chip.
Description: as §3

Where two headings read alike, the source gives them in different places.

Description for PIV1047: as §1, §2
Description for PIV1048: as §1, §2
Description for PIV1049: as §1, §2
Description for PIV1050: as §1, §2
Description for PIV1051: as §1, §2
Description for PIV1052: as §1, §2
Description for PIV1053: as §1, §2
Description for PIV1054: as §1, §2
Description for PIV1055: as §1, §2
Description for PIV1056: as §1, §2
Description for PIV1057: as §1, §2
Description for PIV1058: as §1, §2
Description for PIV1059: as §1, §2
Description for PIV1060: as §1, §2
Description for PIV1061: as §1, §2
Description for PIV1062: as §1, §2
Description for PIV1063: as §1, §2
Description for PIV1064: as §1, §2
Description for PIV1065: as §1, §2
Description for PIV1066: as §1, §2
Description for PIV1067: as §1, §2
Description for PIV1068: as §1, §2
Description for PIV1069: as §2
Description for PIV1070: as §2
Description for hMPV078: as §1
(§4) Conformation integrity of hMPV A F protein mutants were evaluated by thermal stress experiments. Crude cell culture supernatants were normalized based on the results of the titer quantitation and then incubated for 1 hour at room temperature and two higher temperatures. […] Anti-Human IgG Fc Capture (AHC) biosensors were first equilibrated in PB before being dipped into more PB to establish the initial baseline. […] The mAb-bound biosensors were then dipped into the thermal stressed cell culture supernatants for 5 minutes. The kinetics analysis was done by OCTET data analysis software (version 12.0, Sartorius) based on curve fitting of the entire associate step.
Description for hMPV082: as §1, §4
Description for hMPV086: as §1, §4
Description for hMPV087: as §1, §4
Description for hMPV089: as §1, §4

B1: PIV1-8 mAb (antibody, V domains shown)
VH: QVQLVQSGAEVKKPGSSVKVSCEASGGTFSNYVISWVRQAPGQGLEWMGGIIPVFATAKYAQKFQGRVTIIADQSTNTAYLELSSLRSDDTAVYFCASVDSGGTWWDAFAIWGQGTMVTVSS
VL: QAVVTQPRSVSGSPGQAVTISCTGTSSDVGGYNYVSWYQHHPGKAPKLIIYDVTKRPSGVPDRFSGSKSGNTASLTISGLQTEYEADYYCCSYAGSYTLVFGGGTKLTVLG
notes: human IgG1; also called hPIV1-8 mAb; hPIV1-8
On to B1, for which the “Response Shift” value with PIV1054 was 0.764 nm; in the test with PIV1064 it was 0.912 nm; in the test with PIV1063, -0.116 nm; in the test with PIV1066, 0.642 nm; in test [1], 0.709 nm; in the test with PIV1060 it was 0.584 nm. In addition, the “Response Shift” value was 0.737 nm with PIV1048; 0.849 nm in the test with PIV1067; 0.725 nm with PIV1051; 0.848 nm with PIV1050; 0.757 nm with PIV1055; 0.628 nm with PIV1068. The “Response Shift” value is 0.857 nm with PIV1053; 0.739 nm with PIV1056; 0.718 nm with PIV1057; 0.67 nm in the test with PIV1052; 0.809 nm in the test with PIV1065; 0.636 nm with PIV1049. Also, the “Response Shift” value with PIV1059 was determined as 0.841 nm; with PIV1058, 0.688 nm; with PIV1047, 0.79 nm; with PIV1061, 0.619 nm; in the test with PIV1062, 0.619 nm; in test [2], 0.769 nm. The “Response Shift” value in the test with PIV1070 was 0.876 nm; with PIV1069, 0.857 nm. This molecule displayed a Kd in [3] of 0.885 nM.

B2: hMPV-2 mAb (antibody, V domains shown)
VH: QVQLQQSGAEVKKPGASVKVSCKASGYTFTSYGISWVRQAPGQGLEWMGWISGYNGNTNYAQTFQGTFTMTTDTSTSTAYMELRRLRSGDTAVYYCARDRYYASGSYNGMDVWGQGTTVTVSS
VL: QSALTQPPSASGAPGQRVTVSCSGSSSNVGSSSVYWYQQLPGTAPKLLIYRNNQRPSGVPDRFSGSKSGTSASLAISGLRSEDEADYYCAAWDDSLSGWVFGGGTKLTVLG
notes: human IgG1
On to B2, for which the “Response Shift” value was 0.816 nm with hMPV082; 0.757 nm in the test with hMPV078; 0.746 nm with hMPV086; 0.709 nm in the test with hMPV087; 0.801 nm with hMPV089. The molecule further displayed a Kd in test [4] of 0.685 nM.

These data come from patent publication US20240252614A1 (Pfizer, published 2024).
